Molecular target: T1, GFP-MAL^TIR fusion protein (EGFP residues 3-239; MAL residues 79-221) (UniProt P58753 79-221)
T1 construct: MAL (MyD88 adaptor-like/TIRAP), TIR domain, residues 79-221; Printed order of the fusion: EGFP residues 3-239, GSGGS linker, MAL residues 79-221, in pMCSG7; source: E. coli BL21 (DE3), purified (HisTrap FF, Superdex 75)
Assay: crystal growth assay (DIC and GFP fluorescence microscopy); GFP-MAL^TIR-MyD88^TIR or MAL^TIR-MyD88^TIR seeds washed three times, diluted and mixed with MyD88^TIR (95 µM); 10 mM HEPES pH 7.5, 150 mM NaCl, 30 °C
Details: both partners purified

T1 sequence (P58753 79-221): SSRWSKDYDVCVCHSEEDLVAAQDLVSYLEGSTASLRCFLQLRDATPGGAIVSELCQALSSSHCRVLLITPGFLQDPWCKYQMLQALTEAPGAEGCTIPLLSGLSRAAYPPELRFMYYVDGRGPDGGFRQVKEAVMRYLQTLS

- binding result: binds
B1: MyD88 TIR domain (MyD88^TIR), residues 155-296 (domain or fragment, human, UniProt Q99836 155-296, looked up)
chain: GHMPERFDAFICYCPSDIQFVQEMIRQLEQTNYRLKLCVSDRDVLPGTCVWSIASELIEKRCRRMVVVVSDDYLQSKECDFQTKFALSLSPGAHQKRLIPIKYKAMKKEFPSILRFITVCDYTNPCTKSWFWTRLAKALSLP
notes: MyD88 (myeloid differentiation primary response gene 88), TIR domain, residues 155-296 in pET28b; Forms open-ended two-stranded higher-order assemblies in the MAL-induced microcrystals; source: E. coli BL21 (DE3), purified (HisTrap FF, Superdex 75)

From article PMC8110528, “MyD88 TIR domain higher-order assembly interactions revealed by microcrystal electron diffraction and serial femtosecond crystallography” (Nature Communications, 2021)
